Assay results published in the supplement of paper PMC10567573.
± gives the standard deviation.

Assay: protein stability index of a GFP-peptide fusion (GPS, HEK-293T) (PSI 1-6); higher = more stable
[1] = treatment: DMSO, c terminus: a fixed tail appended
[2] = treatment: MLN4924 1 uM, 8 h, c terminus: a fixed tail appended
[3] = treatment: DMSO, c terminus: native
[4] = treatment: MLN4924 1 uM, 8 h, c terminus: native
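Note: 24-mer peptide tiles fused after GFP, lentivirally expressed, FACS-sorted into six equal bins by GFP/DsRed ratio, decoded by Illumina sequencing, PSI is the read-weighted mean bin number.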

| Sequence | protein stability index [1] | protein stability index [2] | protein stability index [3] | protein stability index [4] |
| --- | --- | --- | --- | --- |
| SHFSRLSEEKLALDNNASASGNAT [C10orf62] | 5.03 ± 0.14 | 5.13 ± 0.26 |  |  |
| SIKNSLKVAAISESPVAEKSAST [PTGFR] |  |  | 4.5 ± 0.14 | 4.27 ± 0.2 |
| SIMEMQAMEVNTSASEILYSAPPG [NFE2L1] | 3.81 ± 0.33 | 3.94 ± 0.28 |  |  |
| SKAPGSCDPGTDPCPEDASTPRPP [TLE6] | 5.59 ± 0.28 | 5.45 ± 0.081 |  |  |
| SKYHRFISFTLYLIGFCMFVLSLV [CDS2] | 2.04 ± 0.36 | 1.86 ± 0.51 |  |  |
| SLCCCCRWCCCCGERETRTPEELT [CLCN6] | 3.66 ± 0.41 | 3.88 ± 0.22 |  |  |
| SLGRHKRTHTGEKPYTCSVCGKSF [ZNF8] | 3.2 ± 0.58 | 3.69 ± 0.6 |  |  |
| SLKLALLFYILTFVGAIFNGLTLL [RTN2] | 3.88 ± 0.94 | 3.04 ± 0.11 |  |  |
| SLLLKKPLRVDLILENTSKVPAPK [NOP53] | 2.81 ± 0.16 | 2.98 ± 0.15 |  |  |
| SLQERKQALYEYARRRFTERRAQE [AUP1] | 4.53 ± 0.18 | 4.44 ± 0.21 |  |  |
| SLRSIEQKYKLFQQQQLTFTAALE [SPACA9] | 2.6 ± 0.34 | 2.73 ± 0.35 |  |  |
| SLSVFTEPNRHFYREMQSFSEDI [FBXO33] |  |  | 3.26 ± 0.32 | 3.33 ± 0.27 |
| SMFSRVGGIIAPFIPSLKYVQWSL [SLC22A15] | 2.54 ± 0.41 | 2.5 ± 0.65 |  |  |
| SNGVEMAAKFPSGSQRARVVNTDH [SDE2] | 4.59 ± 0.2 | 4.58 ± 0.26 |  |  |
| SPPLSTEAHFMLQVADINDNPPTF [PCDHGA10] | 3.73 ± 0.17 | 3.9 ± 0.19 |  |  |
| SPVAHKHLSRQKIDPLLYMTEWFM [TBC1D10A] | 2.19 ± 0.18 | 2.23 ± 0.16 |  |  |
| SPVRCGGPGDASPRGCGARRAGEG [WEE1] | 4.54 ± 0.19 | 4.68 ± 0.095 |  |  |
| SQDVSDCYLELFPAHLYFQAHGSE [PLEKHN1] | 2.49 ± 0.19 | 2.81 ± 0.4 |  |  |
| SQHRRIHSGEKPFICKECGKAYGW [ZNF232] | 2.67 ± 0.27 | 2.97 ± 0.64 |  |  |
| SQKYKEGKYIIELNHMIKDNGWD [YPEL3] |  |  | 2.94 ± 0.28 | 2.97 ± 0.15 |
| SQLSMKASLENSLEETKGRYCMQL [KRT16] | 3.44 ± 0.18 | 3.61 ± 0.31 |  |  |
| SRDEAALPELLLGALPVGSNLTSN [RETREG3] | 4.19 ± 0.23 | 4.43 ± 0.28 |  |  |
| SRILKKTVYNEMDKNRCELLSFLL [EDNRA] | 2.14 ± 0.67 | 1.96 ± 0.36 |  |  |

| Sequence | protein stability index [1] | protein stability index [2] | protein stability index [3] | protein stability index [4] |
| --- | --- | --- | --- | --- |
| SRNAADKERAAGGGAGSSEDDAQS [GOLPH3] | 5.63 ± 0.24 | 5.6 ± 0.15 |  |  |
| SSAVYFAEADEPTTHFQSIPDAFW [KCNA4] | 2.54 ± 0.16 | 2.67 ± 0.33 |  |  |
| SSDKVRGIETLESVPIIGGFWETI [PHTF1] | 2.56 ± 0.32 | 2.65 ± 0.31 |  |  |
| SSDVSTAGTGASRSSHSSDSGGSD [ELF3] | 5.44 ± 0.32 | 5.565 ± 0.049 |  |  |
| SSELTDSLRTLKPEGNILRDRFKS [NOP53] | 4.42 ± 0.22 | 4.49 ± 0.14 |  |  |
| SSHFLEQTLDKKLMSDLRRKRTAH [INTS4] | 4.06 ± 0.23 | 4.14 ± 0.17 |  |  |
| SSTSPLMEGTPTIKSKKKLLQIID [VPS39] | 3.76 ± 0.23 | 3.79 ± 0.23 |  |  |
| STKGSRSNLSTRDASILTEMPTQP [NETO1] | 4.52 ± 0.27 | 4.71 ± 0.24 |  |  |
| STPLTATPGGRGDMKYGIYAVENE [VTI1B] | 4.53 ± 0.19 | 4.42 ± 0.22 |  |  |
| STSEDSLVKQECIKEVVEKREACH [FAN1] | 5.52 ± 0.22 | 5.23 ± 0.092 |  |  |
| STSEESWTDSEVDSSCSGQPIHLW [SPDEF] | 4.21 ± 0.32 | 4.37 ± 0.25 |  |  |
| SVLDDLLYAVGGHDGSSYLNSVER [KLHL20] | 2.71 ± 0.46 | 3.03 ± 0.56 |  |  |
| SVLKLHHSLQQSEPDLRHLVLVVN [SERTAD1] | 2.46 ± 0.24 | 2.04 ± 0.25 |  |  |
| SVLSACDNLSDLVMVRWNKSLEWS [IQUB] | 2.04 ± 0.24 | 2.33 ± 0.12 |  |  |
| SVMFRKWRDSKGKDKEYAEIIRKQ [UBE2R2] | 2.98 ± 0.28 | 2.99 ± 0.18 |  |  |
| SWEEGMKVFEELLLDADWSINAGS [CRY1] | 2.84 ± 0.22 | 2.89 ± 0.33 |  |  |
| SWRTLAILVNLQGTVVFLLSLFIP [SLC22A15] | 3.4 ± 0.53 | 2.89 ± 0.11 |  |  |
| SWTAVTPQQTWASPAEVVDLTLDE [C18orf25] | 4.74 ± 0.21 | 4.73 ± 0.2 |  |  |
| SYIGLPYADHNYGARPPPTPPASP [KMT2E] | 4.66 ± 0.32 | 4.73 ± 0.24 |  |  |
| TAAVLGLICEGLYPASIVDEPTFK [ZBED1] | 2.17 ± 0.26 | 2.19 ± 0.6 |  |  |
| TAELVVIEDAAEPKEPAPPNGSAA [PALM] | 5.39 ± 0.14 | 5.47 ± 0.16 |  |  |
| TAHASAQSLAGGSRRTKEEELQC [TPD52L1] |  |  | 4.99 ± 0.1 | 4.88 ± 0.17 |
| TATEELEKTQDDLMKHQTNISELK [EPB41L3] | 5.69 ± 0.23 | 5.47 ± 0.39 |  |  |

| Sequence | protein stability index [1] | protein stability index [2] | protein stability index [3] | protein stability index [4] |
| --- | --- | --- | --- | --- |
| TCGGGVQFSSRDCTRPVPRNGGKY [ADAMTS4] | 4.19 ± 0.33 | 3.94 ± 0.65 |  |  |
| TESEARYSSQLSQVQSLITNVESQ [KRT33B] | 4.66 ± 0.31 | 4.75 ± 0.071 |  |  |
| TEVPFSITTDNLQCRERREHPNLV [TEKT4] | 4.17 ± 0.15 | 4.1 ± 0.15 |  |  |
| TGDGWEFKLADPDEVARRWGKRKN [ETS2] | 4.34 ± 0.33 | 4.34 ± 0.26 |  |  |
| TGEHREFKLDKKYQRPQDSEDMWG [FBF1] | 4.56 ± 0.23 | 4.55 ± 0.35 |  |  |
| TGFGQGQGYTINVPWNQVGMRDAD [HDAC6] | 2.89 ± 0.34 | 2.71 ± 0.28 |  |  |
| TGHGVSRGPSPVVLGSQDALPIAT [FCHO1] | 4.17 ± 0.14 | 4.14 ± 0.045 |  |  |
| TGPLQPQPKKPEDEPQETAYRTQV [PKD2L1] | 5.11 ± 0.45 | 5.3 ± 0.2 |  |  |
| TGYLSSMVGLILGPFGVNHGVELH [PCMTD2] | 3.17 ± 0.31 | 2.78 ± 0.4 |  |  |
| THALAEWASRREAFAQRPSSAPDL [CDC25B] | 3.91 ± 0.26 | 4.01 ± 0.082 |  |  |
| TIDAVPNAIPGRTDIELEIYGMEG [ZNF207] | 3.86 ± 0.27 | 4 ± 0.093 |  |  |
| TIEYLKRHNALLSKRLLALTSSDL [TMEM192] | 2.38 ± 0.42 | 2.17 ± 0.21 |  |  |
| TKLRLERVKFRRQEANARERNRMH [NEUROD6] | 3.67 ± 0.14 | 3.92 ± 0.4 |  |  |
| TLALEYTYGRRAKGHNTPKDIAHF [DYNC2LI1] | 2.74 ± 0.071 | 2.83 ± 0.22 |  |  |
| TLALILQIPTQNTQARQVMEREFN [PPFIA4] | 2.32 ± 0.34 | 2.39 ± 0.26 |  |  |
| TLEQEQEALVNRLWKRMDKLEAEK [CCDC6] | 4.42 ± 0.22 | 4.52 ± 0.17 |  |  |
| TLLLRLNATDPDEGTNGQLDYSFG [PCDHGC5] | 2.88 ± 0.36 | 3.11 ± 0.28 |  |  |
| TLSDWAAAVESVLHLGLPWRMLRP [PPEF2] | 3.1 ± 0.84 | 2.48 ± 0.37 |  |  |
| TLSFIVDGQYLGVAFRGLKGKKLY [SPSB4] | 2.16 ± 0.41 | 2.31 ± 0.31 |  |  |
| TNDRTASQGQWGRAWEVDWFSLAS [DHCR7] | 2.61 ± 0.56 | 2.68 ± 0.33 |  |  |
| TNITEVDAASVYTLPAGADFLMCY [CASP6] | 2.35 ± 0.34 | 2.18 ± 0.25 |  |  |
| TNKMKSPETKQRKLSPLRLSVSNN [KMT2E] | 4.45 ± 0.18 | 4.41 ± 0.083 |  |  |
| TPAFMFRLDASTSHQNLRVDDLSV [FSD1] | 2.9 ± 0.28 | 3.07 ± 0.31 |  |  |

| Sequence | protein stability index [1] | protein stability index [2] | protein stability index [3] | protein stability index [4] |
| --- | --- | --- | --- | --- |
| TPKSGEPRVPEEAAQDRPMSPGDC [YJU2B] | 5.49 ± 0.24 | 5.42 ± 0.25 |  |  |
| TPVIAATPVPTITANVTSVPVPPA [BRD3] | 4.53 ± 0.23 | 4.52 ± 0.047 |  |  |
| TSCAGNLPSRPPPLLSPLLASRNP [RSPH3] | 3.45 ± 0.22 | 3.61 ± 0.32 |  |  |
| TSLKTKFPAEQYYRFHEHWRFVLQ [TSN] | 2.34 ± 0.19 | 2.54 ± 0.16 |  |  |
| TSPYSDPVVSMDLDPQPITDEEEG [PTPRD] | 5.63 ± 0.19 | 5.61 ± 0.095 |  |  |
| TVAMSTLNFCGPNVINHFYCDLPQ [OR3A1] | 2.39 ± 0.47 | 2.22 ± 0.17 |  |  |
| TVANDVMLRTGLGVIRMWADEGSR [NETO1] | 2.61 ± 0.11 | 2.77 ± 0.21 |  |  |
| TVEPRLLVADLLYWKDTRTSGVVF [RTN2] | 2.97 ± 0.61 | 2.98 ± 0.6 |  |  |
| TVGDLGIVRRRSRDVPESPQHAAD [YJU2B] | 5.08 ± 0.25 | 5.3 ± 0.17 |  |  |
| TVKLLVEEKADVLARGPLNQTALH [RIPK4] | 3.35 ± 0.58 | 3.4 ± 0.37 |  |  |
| TVVTGLGPDTQDLEGQSPPQSLPS [PBXIP1] | 5.07 ± 0.34 | 5.16 ± 0.098 |  |  |
| VAASPAPAGERRIYRHRIPSTICF [ZNF511] | 2.51 ± 0.18 | 2.48 ± 0.21 |  |  |
| VAEPLAGPACVTVILPSCVPYNK [KLHL14] |  |  | 2.32 ± 0.37 | 2.36 ± 0.32 |
| VAFRGLKGKKLYPVVSAVWGHCEV [SPSB4] | 1.83 ± 0.46 | 2.71 ± 0.2 |  |  |
| VATWAIFVHRVGQPSIGGKLSPL [CTBP1-DT] |  |  | 3.12 ± 0.21 | 2.92 ± 0.47 |
| VCGHTLCESCVDLLFVRGAGNCPE [MNAT1] | 2.64 ± 0.42 | 2.87 ± 0.53 |  |  |
| VCMDLRANLKQVKKEDTEKERDLR [TNNI2] | 4.71 ± 0.18 | 4.77 ± 0.4 |  |  |
| VCTFTYLLVGAAVFDALESDHEMR [KCNK9] | 2.9 ± 0.7 | 2.85 ± 0.15 |  |  |
| VDATLEHVQDPQNTVKVQVLYPDG [INTS4] | 4.37 ± 0.12 | 4.49 ± 0.15 |  |  |
| VDDHTPWVKGSVPPPLDQYVKFDA [CLPTM1] | 3.99 ± 0.15 | 3.74 ± 0.24 |  |  |
